{"source": "paper PMC4288179", "about": "“Synergic interplay of the La motif, RRM1 and the interdomain linker of LARP6 in the recognition of collagen mRNA expands the RNA binding repertoire of the La module”", "assay_in_all_cases": "ITC; ITC: 20 mM Tris pH 7.25, 100 mM KCl, 5 mM MgCl2, 1 mM DTT, 298 K; protein titrated into RNA", "details_in_all_cases": "protein: recombinant; tags: N-terminal His6 (TEV-cleavable); stem-loop with internal bulge", "key": {"HsLARP6(70-300) W85A": {"molecular_target": "T1, HsLARP6(70-300) W85A (Homo sapiens, UniProt Q9BRS8 70-300, W85A)", "T1 sequence": "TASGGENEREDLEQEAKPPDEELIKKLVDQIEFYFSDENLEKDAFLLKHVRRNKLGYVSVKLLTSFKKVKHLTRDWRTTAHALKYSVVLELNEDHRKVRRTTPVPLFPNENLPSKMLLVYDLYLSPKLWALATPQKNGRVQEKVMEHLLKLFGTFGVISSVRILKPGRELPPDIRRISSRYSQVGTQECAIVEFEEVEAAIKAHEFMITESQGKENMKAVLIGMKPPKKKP"}, "HsLARP6(74-313)": {"molecular_target": "T2, HsLARP6(74-313) (Homo sapiens, UniProt Q9BRS8 74-313)", "T2 sequence": "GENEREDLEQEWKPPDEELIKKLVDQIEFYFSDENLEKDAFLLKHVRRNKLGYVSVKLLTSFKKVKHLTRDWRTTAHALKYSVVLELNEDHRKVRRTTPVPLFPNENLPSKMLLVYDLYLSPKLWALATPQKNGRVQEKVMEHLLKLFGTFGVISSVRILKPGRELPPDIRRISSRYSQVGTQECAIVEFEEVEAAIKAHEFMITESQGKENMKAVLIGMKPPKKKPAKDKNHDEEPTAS"}, "HsLARP6(70-300) F135A": {"molecular_target": "T3, HsLARP6(70-300) F135A (Homo sapiens, UniProt Q9BRS8 70-300, F135A)", "T3 sequence": "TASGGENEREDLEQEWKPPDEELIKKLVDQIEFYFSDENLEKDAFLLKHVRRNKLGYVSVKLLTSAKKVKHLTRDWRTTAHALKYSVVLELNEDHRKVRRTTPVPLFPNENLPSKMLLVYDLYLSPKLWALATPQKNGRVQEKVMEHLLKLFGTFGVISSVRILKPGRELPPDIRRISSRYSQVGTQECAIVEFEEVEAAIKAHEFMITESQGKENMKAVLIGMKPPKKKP"}, "HsLARP6(70-300) Q99A": {"molecular_target": "T4, HsLARP6(70-300) Q99A (Homo sapiens, UniProt Q9BRS8 70-300, Q99A)", "T4 sequence": "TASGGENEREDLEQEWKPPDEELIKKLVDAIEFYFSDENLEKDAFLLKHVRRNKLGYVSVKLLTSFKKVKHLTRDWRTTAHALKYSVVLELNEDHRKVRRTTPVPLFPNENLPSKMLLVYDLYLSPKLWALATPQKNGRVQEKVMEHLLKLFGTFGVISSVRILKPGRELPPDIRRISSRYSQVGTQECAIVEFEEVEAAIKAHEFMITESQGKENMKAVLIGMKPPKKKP"}, "[1]": {"molecular_target": "T5, HsLARP6(70-300) R244E/R245E/R249E (Homo sapiens, UniProt Q9BRS8 70-300, R244E;R245E;R249E)", "T5 sequence": "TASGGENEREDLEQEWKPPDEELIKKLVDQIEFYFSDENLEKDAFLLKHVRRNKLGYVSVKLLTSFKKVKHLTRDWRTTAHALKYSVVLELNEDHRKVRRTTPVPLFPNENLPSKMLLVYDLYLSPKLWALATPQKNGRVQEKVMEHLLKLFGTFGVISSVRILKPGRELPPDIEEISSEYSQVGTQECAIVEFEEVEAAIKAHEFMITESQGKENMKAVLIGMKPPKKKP"}}}
{"binder": "CCACAAAGAGUCUACAUGUCUAGGGUCUAGACAUGUUCAGCUUUGUGG (structured_RNA)", "note": "[48 nt RNA (collagen alpha1(I) 5' UTR SL)]", "values": [{"measurement": "Kd", "setting": "HsLARP6(70-300) W85A", "result": 22, "unit": "nM"}, {"measurement": "Kd", "setting": "HsLARP6(74-313)", "result": 26, "unit": "nM"}, {"measurement": "binding result", "setting": "HsLARP6(70-300) F135A", "result": "no binding"}, {"measurement": "binding result", "setting": "HsLARP6(70-300) Q99A", "result": "no binding"}, {"measurement": "Kd", "setting": "[1]", "result": 27, "unit": "nM"}]}
